Test results from PMC4407904, “Increased Expression of the Large Conductance, Calcium-Activated K^+ (BK) Channel in Adult-Onset Neuronal Ceroid Lipofuscinosis” (PLoS ONE, 2015).

Biological target: the molecule itself
Assay: SDS-PAGE and immunoblot of detergent-resistant oligomers; soluble CAD cell lysates (1% Triton X-100, 0.1% SDS lysis buffer) 24-72 h after transient transfection; blots with anti-myc, anti-flag or anti-CSPα

B1: myc-tagged wild type cysteine string protein (CSPα) (natural protein, UniProt P60905 1-198, looked up)
chain: MADQRQRSLSTSGESLYHVLGLDKNATSDDIKKSYRKLALKYHPDKNPDNPEAADKFKEINNAHAILTDATKRNIYDKYGSLGLYVAEQFGEENVNTYFVLSSWWAKALFVVCGLLTCCYCCCCLCCCFNCCCGKCKPKAPEGEETEFYVSPEDLEAQLQSDEREATDTPIVIQPASATETTQLTADSHPSYHTDGFN
notes: Cysteine string protein alpha (CSPα, DnaJC5), wild type; Seen on blots as an unpalmitoylated 26 kDa species, a palmitoylated 35 kDa monomer and a 70 kDa dimer; rat cDNA is surmised; also called WTCSPα; myc-CSPα; source: CAD cells, transiently transfected, in lysate
**Q.** For B1, which “stoichiometry N” value is on record?
**A.** 2
